In data set [1] the target is X1BR2-GFP (C-terminal BRCT domain of XRCC1 fused to C-terminal GFP) (human, UniProt P18887 538-633). The experiment in a line: GFP-fluorescence-based competition binding assay.
The data set “SAXS” concerns the molecule itself. The experiment in a line: SAXS.
The data set “SEC” deals with the molecule itself. The experiment in a line: SEC. For orientation: In gel filtration, larger molecules generally elute earlier.
Another data set has as its target T1, L3BR (residues 825-922) (human, UniProt P49916-3 825-922).
T1 sequence (looked up): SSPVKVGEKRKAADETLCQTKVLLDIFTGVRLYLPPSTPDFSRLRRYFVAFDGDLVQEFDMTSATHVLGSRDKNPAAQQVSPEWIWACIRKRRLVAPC
The experiment in a line: native gel or EMSA.

Residue numbers refer to the chain shown, from its start. Names and notes keep the numbering of the source.

For orientation: EC50 means the concentration giving half of the maximal effect. A high value points to a need for much substance. The term stoichiometry N denotes a count of units in the complex or per binding partner.

B1: MBP-L3BR^844 (L3BR^832 lacking its 12 N-terminal residues, MBP fusion) (domain or fragment, human, UniProt P49916-3 844-922, looked up)
chain: TKVLLDIFTGVRLYLPPSTPDFSRLRRYFVAFDGDLVQEFDMTSATHVLGSRDKNPAAQQVSPEWIWACIRKRRLVAPC
Molecule B1 showed an EC50 in data set [1] of 670 nM.

B2: phosphorylated XRCC1ΔN (XRCC1ΔN-p, residues 294-633) (domain or fragment, human, UniProt P18887 294-633, looked up)
chain: AVTGKPRGEGTEPRRPRAGPEELGKILQGVVVVLSGFQNPFRSELRDKALELGAKYRPDWTRDSTHLICAFANTPKYSQVLGLGGRIVRKEWVLDCHRMRRRLPSQRYLMAGPGSSSEEDEASHSGGSGDEAPKLPQKQPQTKTKPTQAAGPSSPQKPPTPEETKAASPVLQEDIDIEGVQSEGQDNGAEDSGDTEDELRRVAEQKEHRLPPGQEENGEDPYAGSTDENTDSEEHQEPPDLPVPELPDFFQGKHFFLYGEFPGDERRKLIRYVTAFNGELEDYMSDRVQFVITAQEWDPSFEEALMDNPSLAFVRPRWIYSCNEKQKLLPHQLYGVVPQA
modifications: phosphorylated by casein kinase II (CK2) in the region between X1BR1 and X1BR2; sites not given
With B2, in “SAXS”, the binding result is “binds”.

B3: MBP-L3BR^832 (C-terminal BRCT domain of DNA ligase IIIα, residues 832-922, N-terminal MBP fusion) (domain or fragment, human, UniProt P49916-3 832-922, looked up)
chain: EKRKAADETLCQTKVLLDIFTGVRLYLPPSTPDFSRLRRYFVAFDGDLVQEFDMTSATHVLGSRDKNPAAQQVSPEWIWACIRKRRLVAPC
Take B3: in data set [1], the EC50 came out at 1240 nM. Moreover, the “stoichiometry N” value in “SEC” came out at 2.

B4: L3BR^832 (untagged, residues 832-922 of DNA ligase IIIα) (domain or fragment, human, UniProt P49916-3 832-922, looked up)
chain: B3 chain
In the case of B4, the “stoichiometry N” value in “SAXS” worked out at 2.

B5: L3BR^832 fused to C-terminal GFP (domain or fragment, human, UniProt P49916-3 832-922, looked up)
chain: B3 chain
Take B5: in the data set “SEC”, the “stoichiometry N” value amounted to 2.

B6: X1BR2 L626E (residues 538-633), designated wild type (WT) in Figure 1E (domain or fragment, human, UniProt P18887 538-633, looked up)
chain: ELPDFFQGKHFFLYGEFPGDERRKLIRYVTAFNGELEDYMSDRVQFVITAQEWDPSFEEALMDNPSLAFVRPRWIYSCNEKQKLLPHQEYGVVPQA
As to B6, the binding result in the data set with L3BR (residues 825-922) was “binds”.

B7: X1BR2 F569A (on the L626E template, residues 538-633) (domain or fragment, human, UniProt P18887 538-633, looked up)
chain: B6 chain with F32A
B7: in the data set with L3BR (residues 825-922), the binding result was “binds”.

B8: X1BR2 N570A (on the L626E template, residues 538-633) (domain or fragment, human, UniProt P18887 538-633, looked up)
chain: B6 chain with N33A
As to B8, the binding result with L3BR (residues 825-922) is “binds”.

B9: X1BR2 Y565A (on the L626E template, residues 538-633) (domain or fragment, human, UniProt P18887 538-633, looked up)
chain: B6 chain with Y28A
On to B9, for which the binding result with L3BR (residues 825-922) is “binds”.

For the origin of these results see article PMC7797052 (Nucleic Acids Research, 2020).
